{
  "source": "paper PMC13107021",
  "about": "“Structural basis for suramin binding to the C-terminal domain of the SARS-CoV-2 nucleocapsid protein”",
  "target": "SARS-CoV-2 N-CTD (nucleocapsid C-terminal domain) (SARS-CoV-2, UniProt P0DTC9 247-364)",
  "assay": "BLI; BLI and EMSA: 25 mM sodium phosphate, 50 mM NaCl, pH 6.0; EMSA 25 C, 30 min, 10 uM RNA, 20% native PAGE",
  "conditions": "protein: recombinant; biotinylated for BLI; 15N-labelled for NMR; chain copies: 2; label: none",
  "data": [
    {"binder": "AUAUGGAAGAGCCCUA (ssRNA)", "note": "[15-nt SARS-CoV-2 genome-derived RNA]", "values": [
      {"measurement": "Kd", "result": "~10.1", "unit": "µM"}
    ]}
  ]
}
